This is an account of results in patent EP4671273A1 (Anaveon AG, dated 2025).

The chains are these.
B1: EFY288 (bispecific antibody, human IgG1, kappa, lambda, L234A L235A)
heavy 1: EVQLLESGGGLVQPGGSLRLSCAASGFTFSINAMTWVRQAPGKGLEWVSTISGSGFSTYYADSLKGRFTISRDNSKNTLYLQMNSLRAEDTAVYYCAKEVYGDYWGQGTLVTVSSASTKGPSVFPLAPSSKSTSGGTAALGCLVKDYFPEPVTVSWNSGALTSGVHTFPAVLQSSGLYSLSSVVTVPSSSLGTQTYICNVNHKPSNTKVDKRVEPKSCDKTHTCPPCPAPEAAGGPSVFLFPPKPKDTLMISRTPEVTCVVVDVSHEDPEVKFNWYVDGVEVHNAKTKPREEQYNSTYRVVSVLTVLHQDWLNGKEYKCKVSNKALAAPIEKTISKAKGQPREPQVCTLPPSREEMTKNQVSLSCAVKGFYPSDIAVEWESNGQPENNYKTTPPVLDSDGSFFLVSKLTVDKSRWQQGNVFSCSVMHEALHNHYTQKSLSLSPGK
light 1: not shown
heavy 2: QVQLQESGPGLVKPSETLSLTCTVSGGSISSDYWGWIRQPPGKGLEWIGYISYRGSTNYNPSLKSRVTISVDTSRNQFSLKLSSVTAADTAVYYCARSAGVTDFDAWGQGTLVTVSSASTKGPSVFPLAPSSKSTSGGTAALGCLVKDYFPEPVTVSWNSGALTSGVHTFPAVLQSSGLYSLSSVVTVPSSSLGTQTYICNVNHKPSNTKVDKRVEPKSCDKTHTCPPCPAPEAAGGPSVFLFPPKPKDTLMISRTPEVTCVVVDVSHEDPEVKFNWYVDGVEVHNAKTKPREEQYNSTYRVVSVLTVLHQDWLNGKEYKCKVSNKALAAPIEKTISKAKGQPREPQVYTLPPCREEMTKNQVSLWCLVKGFYPSDIAVEWESNGQPENNYKTTPPVLDSDGSFFLYSKLTVDKSRWQQGNVFSCSVMHEALHNHYTQKSLSLSPGK
light 2: not shown
B2: CDP278 (bispecific antibody, human IgG1, kappa, lambda, L234A L235A)
heavy 1: B1 heavy 1
light 1: not shown
heavy 2: B1 heavy 2 with Y33F, Y53S, S65R, A106F
light 2: not shown
B3: CDP451 (bispecific antibody, human IgG1, kappa, lambda, L234A L235A)
heavy 1: B1 heavy 1
light 1: not shown
heavy 2: B1 heavy 2 with Y33F, Y53S, S65R, A106F
light 2: not shown
B4: GWM570 (bispecific antibody, human IgG1, kappa, lambda, L234A L235A)
heavy 1: B1 heavy 1
light 1: not shown
heavy 2: B1 heavy 2 with Y33F, Y53S, S65R, A106F
light 2: not shown
B5: XOW683 (bispecific antibody, human IgG1, kappa, lambda, L234A L235A)
heavy 1: B1 heavy 1
light 1: not shown
heavy 2: B1 heavy 2 with R54S
light 2: not shown
B6: CHU368 (bispecific antibody, human IgG1, kappa, lambda, L234A L235A)
heavy 1: B1 heavy 1
light 1: not shown
heavy 2: B1 heavy 2
light 2: not shown
B7: 21A08Ap1 (antibody, human IgG1, V domains shown)
VH: EVQLLESGGGLVQPGGSLRLSCAASGFTFSINAMTWVRQAPGKGLEWVSTISGSGFSTYYADSLKGRFTISRDNSKNTLYLQMNSLRAEDTAVYYCAKEVYGDYWGQGTLVTVSS
VL: RSVLTQPPSASGTPGQRVSISCSGASSNIGSQSVFWYQQLPGTAPKLLIYSNNQRPSGVPDRFSGSKSGTSASLAISGLRSEDEADYYCAAWDDSLSIWVFGGGTKLTVL
notes: human IgG1; also called anti-PD-1 antibody clone 21A08Ap1
B8: NWL270 (antibody, human IgG1, V domains shown)
VH: B7 VH
VL: B7 VL with I98N
notes: human IgG1
B9: FHX509 (antibody, human IgG1, V domains shown)
VH: B7 VH
VL: B7 VL with I98A
notes: human IgG1
B10: JOH712 (antibody, human IgG1, V domains shown)
VH: B7 VH
VL: B7 VL with L40H
notes: human IgG1
B11: SSR010 (antibody, human IgG1, V domains shown)
VH: B7 VH
VL: B7 VL with I29V
notes: human IgG1
B12: KOW427 (antibody, human IgG1, V domains shown)
VH: B7 VH
VL: B7 VL with L48G
notes: human IgG1
B13: KWH245 (antibody, human IgG1, V domains shown)
VH: B7 VH
VL: B7 VL with W36T
notes: human IgG1
B14: KYC847 (antibody, human IgG1, V domains shown)
VH: B7 VH
VL: B7 VL with S97T
notes: human IgG1
B15: GDY271 (antibody, human IgG1, V domains shown)
VH: B7 VH
VL: B7 VL with F35Y
notes: human IgG1
B16: JZW468 (antibody, human IgG1, V domains shown)
VH: B7 VH
VL: B7 VL with S95Q
notes: human IgG1
B17: GZZ692 (antibody, human IgG1, V domains shown)
VH: B7 VH
VL: B7 VL with I49G
notes: human IgG1
B18: ZAP122 Fab (Fab, V domains shown)
VH: QVQLQESGPGLVKPSETLSLTCTVSGGSISSDFWGWIRQPPGKGLEWIGYISSRGSTNYNPSLKRRVTISVDTSRNQFSLKLSSVTAADTAVYYCARSAGVTDFDFWGQGTLVTVSS
VL: DIQMTQSPSSVSASVGDRVTITCRASQGISSWLAWYQHKPGKAPKLLIYVASSLQSGVPSRFSGSGSGTDFTLTISSLQPEDFATYYCQQANSFPLTFGGGTKVEIK
notes: Fab; also called ZAP122 wt
B19: UER756 Fab (Fab, V domains shown)
VH: B18 VH with F33Y, R54S, R65S, F106A
VL: B18 VL with M4L, N92S
notes: Fab
B20: ZXI489 Fab (Fab, V domains shown)
VH: B18 VH with F33Y, S53Y, R65S, F106W
VL: B18 VL with M4L, N92S, F94A
notes: Fab
B21: VPH777 Fab (Fab, V domains shown)
VH: B18 VH with F33Y, R54S, R65S, T102A
VL: B18 VL with M4L, N92S
notes: Fab
B22: RPD212 Fab (Fab, V domains shown)
VH: B18 VH with F33Y, S53Y, R54S, R65S, F106A
VL: B18 VL with M4L, N92S
notes: Fab

Substitutions are numbered along the chain they refer to. A value given as a limit tells only on which side of the number the result lay.

In the first assay the target is human IL-21 receptor (IL-21R) on cells (human, UniProt Q9HBE5 20-538; P31785 23-369). Description: cell-based or functional assay.
human IL-21 receptor (IL-21R) on cells, sequence (Q9HBE5 20-538, chain 1 of 2): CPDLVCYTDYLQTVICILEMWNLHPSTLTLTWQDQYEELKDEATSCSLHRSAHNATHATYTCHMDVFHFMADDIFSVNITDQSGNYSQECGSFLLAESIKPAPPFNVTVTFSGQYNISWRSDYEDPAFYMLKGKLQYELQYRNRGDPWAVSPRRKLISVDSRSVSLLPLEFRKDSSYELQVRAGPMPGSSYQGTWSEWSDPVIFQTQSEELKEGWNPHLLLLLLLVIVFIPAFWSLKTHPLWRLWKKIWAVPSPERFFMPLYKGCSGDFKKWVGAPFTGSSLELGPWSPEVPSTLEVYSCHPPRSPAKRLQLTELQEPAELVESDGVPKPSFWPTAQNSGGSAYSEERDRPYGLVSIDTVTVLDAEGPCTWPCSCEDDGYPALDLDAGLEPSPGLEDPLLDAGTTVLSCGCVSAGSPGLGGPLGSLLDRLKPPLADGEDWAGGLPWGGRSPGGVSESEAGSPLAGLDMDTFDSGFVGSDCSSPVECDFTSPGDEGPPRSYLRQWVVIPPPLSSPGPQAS
human IL-21 receptor (IL-21R) on cells, sequence (P31785 23-369, chain 2 of 2): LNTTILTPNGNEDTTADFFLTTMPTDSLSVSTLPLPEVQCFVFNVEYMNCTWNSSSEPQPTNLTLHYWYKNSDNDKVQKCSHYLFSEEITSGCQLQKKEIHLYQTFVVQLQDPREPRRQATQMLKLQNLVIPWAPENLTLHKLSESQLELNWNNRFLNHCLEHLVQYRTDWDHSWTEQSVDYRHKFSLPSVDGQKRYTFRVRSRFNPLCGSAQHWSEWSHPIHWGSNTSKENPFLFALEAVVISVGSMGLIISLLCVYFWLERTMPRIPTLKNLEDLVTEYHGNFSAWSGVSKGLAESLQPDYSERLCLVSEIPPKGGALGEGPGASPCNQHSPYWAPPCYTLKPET
For B1, the “EC50B, pSTAT3+ Jurkat PD-1 cells, PD-1 blocked” value (“EC50B, pSTAT3+ Jurkat PD-1 cells” below) is 0.234 nM and the “EC50NB, pSTAT3+ Jurkat PD-1 cells” value worked out at 0.129 nM.
With B2, the “EC50B, pSTAT3+ Jurkat PD-1 cells” value worked out at 1.05 nM and the “EC50NB, pSTAT3+ Jurkat PD-1 cells” value turned out to be 0.167 nM.
On to B3, for which the “EC50B, pSTAT3+ Jurkat PD-1 cells” value was determined as 1.24 nM and the “EC50NB, pSTAT3+ Jurkat PD-1 cells” value stood at 0.106 nM.
For the molecule B4, the “EC50B, pSTAT3+ Jurkat PD-1 cells” value turned out to be 2.13 nM and the “EC50NB, pSTAT3+ Jurkat PD-1 cells” value was 0.257 nM.
The corresponding values for B5 are 1.84 nM and 0.413 nM.
As for B6, the “EC50B, pSTAT3+ Jurkat PD-1 cells” value was determined as 2.16 nM and the “EC50NB, pSTAT3+ Jurkat PD-1 cells” value came to 0.583 nM.

The target in the next assay is T1, human PD-1 (#PD1-H82E4, AcroBiosystems) (human, UniProt Q15116 25-167).
T1 construct: bought
T1 sequence (Q15116 25-167 limits assumed): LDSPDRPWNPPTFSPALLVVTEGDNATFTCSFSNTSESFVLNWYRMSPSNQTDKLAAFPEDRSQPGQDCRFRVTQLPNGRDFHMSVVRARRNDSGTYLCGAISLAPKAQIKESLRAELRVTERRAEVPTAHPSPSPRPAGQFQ
Description: SPR, PD-1 on captured IgG1.
Consider B7, for which the Kd was found to be 1.27 nM, the koff is 0.00011 s⁻¹ and the kon stood at 86800 M⁻¹ s⁻¹.
The corresponding values for B8 are 0.229 nM, 9.82e-05 s⁻¹ and 429000 M⁻¹ s⁻¹.
The corresponding values for B9 are 0.694 nM, 8.38e-05 s⁻¹ and 121000 M⁻¹ s⁻¹.
The corresponding values for B10 are 0.546 nM, 8.88e-05 s⁻¹ and 163000 M⁻¹ s⁻¹.
The molecule B11 returned a dissociation constant Kd of 0.0767 nM, a koff of 0.000199 s⁻¹ and a kon of 2.6e+06 M⁻¹ s⁻¹.
In turn, B12 yielded a Kd of 0.586 nM, a koff of 7.97e-05 s⁻¹ and a kon of 136000 M⁻¹ s⁻¹.
The corresponding values for B13 are 0.183 nM, 0.000305 s⁻¹ and 1.67e+06 M⁻¹ s⁻¹.
The corresponding values for B14 are 0.528 nM, 7.59e-05 s⁻¹ and 144000 M⁻¹ s⁻¹.
The corresponding values for B15 are 3.56 nM, 0.0013 s⁻¹ and 364000 M⁻¹ s⁻¹.
B16 showed a Kd of 0.631 nM, a koff of 9.2e-05 s⁻¹ and a kon of 146000 M⁻¹ s⁻¹.
B17 displayed a Kd of 1.41 nM, a koff of 0.000209 s⁻¹ and an on-rate constant (kon) of 148000 M⁻¹ s⁻¹.

In the next assay the target is T2, cynomolgus PD-1 (#PD1-C52H5, AcroBiosystems) (cynomolgus monkey, UniProt B0LAJ3 25-170).
T2 construct: bought; also called cynomolgus monkey PD-1; not shown: the vendor's tag on the recombinant protein (AcroBiosystems #PD1-C52H5)
T2 sequence (B0LAJ3 entry or part of it limits assumed, form in doubt): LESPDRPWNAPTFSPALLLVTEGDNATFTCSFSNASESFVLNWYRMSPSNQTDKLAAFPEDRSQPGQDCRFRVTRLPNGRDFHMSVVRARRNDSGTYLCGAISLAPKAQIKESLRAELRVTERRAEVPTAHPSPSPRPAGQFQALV
The assay is described as follows: SPR, PD-1 on captured IgG1. (In SPR one partner is held on a chip, and binding of the other changes the refractive index at the surface.)
Turning to B7, the Kd was 1.25 nM, the koff is 0.000259 s⁻¹ and the kon is 206000 M⁻¹ s⁻¹.
The corresponding values for B8 are 0.949 nM, 0.00015 s⁻¹ and 158000 M⁻¹ s⁻¹.
The corresponding values for B9 are 0.699 nM, 0.000239 s⁻¹ and 341000 M⁻¹ s⁻¹.
The corresponding values for B10 are 1.11 nM, 0.000252 s⁻¹ and 227000 M⁻¹ s⁻¹.
In the case of B11, the Kd was 1.14 nM, the koff came out at 0.000301 s⁻¹ and the kon came to 263000 M⁻¹ s⁻¹.
B12: binding was characterised by a dissociation constant (Kd) of 1.27 nM, the koff came to 0.000296 s⁻¹ and the kon was 233000 M⁻¹ s⁻¹.
With B13, the Kd was determined as 2.29 nM, the koff stood at 0.000644 s⁻¹ and the kon was 281000 M⁻¹ s⁻¹.
The corresponding values for B14 are 0.597 nM, 0.000139 s⁻¹ and 233000 M⁻¹ s⁻¹.
The corresponding values for B15 are 6.38 nM, 12.2 s⁻¹ and 1.91e+09 M⁻¹ s⁻¹.
On to B16, for which the Kd was 0.959 nM, the koff stood at 0.00029 s⁻¹ and the kon stood at 302000 M⁻¹ s⁻¹.
The corresponding values for B17 are 4.5 nM, 0.00153 s⁻¹ and 340000 M⁻¹ s⁻¹.

The target in another assay is T3, Recombinant hIL-21-Fc (AcroBiosystems) (human, UniProt Q9HBE4 30-162).
T3 construct: bought; also called rhIL-21; not shown: Fc of the bought reagent, not described
T3 sequence (Q9HBE4 30-162): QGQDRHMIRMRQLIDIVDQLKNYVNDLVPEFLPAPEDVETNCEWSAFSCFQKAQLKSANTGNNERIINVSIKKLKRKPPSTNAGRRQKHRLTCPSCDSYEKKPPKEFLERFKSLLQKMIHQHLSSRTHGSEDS
The assay is described as follows: SPR, Fab on captured rhIL-21-Fc.
In the case of B18, the Kd is under 0.0265 nM, the koff was under 1e-05 s⁻¹ and the kon came out at 377000 M⁻¹ s⁻¹.

For a further assay, the target named is T4, rhIL-21-His (AB235875-1001, Abcam) (human, UniProt Q9HBE4 30-162).
T4 construct: bought; not shown: His tag, length and position not described
T4 sequence (Q9HBE4 30-162 limits assumed): as the sequence (Q9HBE4 30-162) above
The assay is described as follows: SPR, Fab on captured rhIL-21-His.
For B18, binding was put at a Kd of 0.313 nM, the koff amounted to 6.91e-05 s⁻¹ and the kon was determined as 221000 M⁻¹ s⁻¹.
The corresponding values for B19 are 0.81 nM, 0.00011 s⁻¹ and 140000 M⁻¹ s⁻¹.
For B20, binding was put at a Kd of 7.04 nM, the koff came to 0.00484 s⁻¹ and the kon amounted to 688000 M⁻¹ s⁻¹.
The corresponding values for B21 are 0.73 nM, 0.0001 s⁻¹ and 140000 M⁻¹ s⁻¹.
The corresponding values for B22 are 1.1 nM, 0.00015 s⁻¹ and 130000 M⁻¹ s⁻¹.

What is called Kd is the concentration at which binding is half-saturated. As a reminder, the koff is the rate constant with which the complex falls apart. For orientation: kon means the rate constant with which the complex forms.
